Data: paper PMC5404824, “Engineering Nucleotide Specificity of Succinyl-CoA Synthetase in Blastocystis: The Emerging Role of Gatekeeper Residues” (Biochemistry, 2016)

Tested on: Nc1nc2c(ncn2[C@@H]2O[C@H](COP(=O)(O)OP(=O)(O)OP(=O)(O)O)[C@@H](O)[C@H]2O)c(=O)[nH]1
Assay: purified protein
Assay type: biochemical, Blastocystis hominis
Conditions: 129 μM CoA, 10 mM succinate, 50 mM KCl, 10 mM MgCl2, 50 mM Tris-HCl pH 7.4, 30 nM enzyme

Substance “Blastocystis SCS (succinyl-CoA synthetase, SCSα + SCSβ) (Blastocystis sp. ATCC 50177/Nand II; K128D/K60E)” has a Km of 143 ± 17 µM, a kcat of 0.0195 ± 0.001 s⁻¹ and a kcat/Km of 136 M⁻¹ s⁻¹.

With “Blastocystis SCS (succinyl-CoA synthetase, SCSα + SCSβ) (Blastocystis sp. ATCC 50177/Nand II; K128D/K60E/L241F/V127L)” the Km was 82 ± 12 µM, the kcat was 0.0078 ± 0.0004 s⁻¹ and the kcat/Km was 96 M⁻¹ s⁻¹.
